From paper PMC3514331, “Structure-function analysis of Methanobacterium thermoautotrophicum RNA ligase – engineering a thermostable ATP independent enzyme” (BMC Molecular Biology, 2012)
Where a chain is given by its changes, count along the chain named. In names and notes the source's numbering stands.

Substrate: Nc1ncnc2c1ncn2[C@@H]1O[C@H](COP(=O)(O)OP(=O)(O)OP(=O)(O)O)[C@@H](O)[C@H]1O
Experiment: purified protein
Format: biochemical, Methanothermobacter thermautotrophicus
Conditions: 10 mM Mg2+, 30 min, covalent enzyme-AMP formation, labelled compound

B1: MthRnl (Methanobacterium thermoautotrophicum RNA ligase) (Methanothermobacter thermautotrophicus str. Delta H) (protein)
chain: MNSMNSDIPFDLIQERTGVPSSRLKVAFARGSLRLLESAGMQALLFKKPLGDLEAGTVIYLGDETEVIRGFPKIRRTLLLSPTIQEHFRDRVAVEEKMNGYNVRIACLSSGETVALTRGGHVCPFTTRKAQELLDLSEFFREHPDLVICGEMIGRDNPYVSQDYPEVGPLGFRVFDLREKNTNRPLPVEERRALLDSYGLPNVRLFGVYPIEEAASEVADIIRALGMAGREGVVMKDPSMEVPPLKYTSSQAHARELAYAFSYPFDFGRPFFFSRVIREGFQAYELDESDDETRERARRLGEAIIYPMLERIKSISAGEAAYEDTVIDVEDREAAEEFIRHLVRLGVSATLADYRDGRATIRRFYQSTTDRINNYLKGGLY
notes: full-length codon-optimized ORF, N-terminal His10 tag (pET16b), expressed in E. coli, tag cleavage not mentioned; homodimer, about 46 kDa per monomer (10 pmol = 460 ng)
B1 was tested, and the Km (10 mM bis-Tris propane pH 7.0, 65°C) was 0.9 µM.

B2: MthRnl (Methanobacterium thermoautotrophicum RNA ligase) (Methanothermobacter thermautotrophicus str. Delta H; K246A) (protein)
chain: B1 chain with K246A
notes: as for B1
In the case of B2, the Km (10 mM bis-Tris propane pH 8.5, 65°C) is reported as 60 µM.
